Test results published in publication PMC8234171.

What was measured:
[1] = target: human mitochondrial complex I (NADH-coenzyme Q oxidoreductase) (human (endogenous in T-REx-293 shRNA-C3)); assay: native gel or EMSA; high-resolution clear native gel electrophoresis (HrCNE, 6.5% gel, 4 °C) of DDM-solubilised mitochondria of shRNA-C3 cells treated with 0.03 mg/mL TAT-NDUFS8 for 0-48 h; immunoblot with anti-NDUFS8 at the complex I location; intensity normalised to complex V (ATPase α subunit)
[2] = target: human mitochondrial complex I (NADH-coenzyme Q oxidoreductase) (human (endogenous in T-REx-293 shRNA-C3))

**Q.** Which results are given for “TAT-NDUFS8 fusion protein (from UniProt O00217 35-210)”?
**A.** intensity of NDUFS8 at the complex I location after 48 h of treatment [1]: 105%; complex I in-gel activity (NADH/NBT staining after HrCNE) of shRNA-C3 cells treated with 0.03 mg/mL TAT-NDUFS8 for 48 h; untreated shRNA-C3 cells about 83.6% of the wild type (% of the wild-type activity) [2]: 109
